For assay [1], the target named is fibrinogen binding protein encoded from pSE100 (581 aa part of protein FIG of Staphylococcus epidermidis strain HB) (Staphylococcus epidermidis strain HB) (UniProt O70022). In words: inhibition of pSE100 phage panning on fibrinogen-coated wells by the soluble ligand; phage eluted at pH 1.8.
Assay [2] concerns the target Bovine serum albumin (fraction V, ria grade) (bovine) (UniProt P02769). The assay can be described thus: phage panning on coated protein in microtiter wells; last wash.
Sequence of UniProt P02769 (P02769 25-607 limits assumed): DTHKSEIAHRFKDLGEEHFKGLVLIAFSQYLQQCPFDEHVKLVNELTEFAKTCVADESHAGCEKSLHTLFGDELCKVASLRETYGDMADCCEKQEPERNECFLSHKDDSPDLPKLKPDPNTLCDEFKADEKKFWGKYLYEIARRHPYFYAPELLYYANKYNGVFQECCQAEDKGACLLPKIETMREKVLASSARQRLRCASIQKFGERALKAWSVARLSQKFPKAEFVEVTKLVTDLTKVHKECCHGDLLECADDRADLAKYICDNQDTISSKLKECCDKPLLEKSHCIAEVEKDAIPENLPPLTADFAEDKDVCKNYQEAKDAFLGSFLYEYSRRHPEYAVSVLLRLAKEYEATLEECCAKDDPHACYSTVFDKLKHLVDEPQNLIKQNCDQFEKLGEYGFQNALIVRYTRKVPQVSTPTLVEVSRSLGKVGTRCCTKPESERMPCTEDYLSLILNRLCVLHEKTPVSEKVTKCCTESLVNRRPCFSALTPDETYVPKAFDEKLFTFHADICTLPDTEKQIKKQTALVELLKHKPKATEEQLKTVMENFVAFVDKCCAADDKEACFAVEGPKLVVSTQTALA
The target of assay [3] is Collagen type I. The description is as above.
In assay [4] the target is Elastin. The description is as above.
Assay [5] addresses Fibronectin. Described as above.
The target of assay [6] is Human fibrinogen (human) (UniProt P02671). The description is as above.
Sequence of UniProt P02671 (P02671 other isoform, or with tags, fused parts or gaps limits assumed, chain 1 of 3): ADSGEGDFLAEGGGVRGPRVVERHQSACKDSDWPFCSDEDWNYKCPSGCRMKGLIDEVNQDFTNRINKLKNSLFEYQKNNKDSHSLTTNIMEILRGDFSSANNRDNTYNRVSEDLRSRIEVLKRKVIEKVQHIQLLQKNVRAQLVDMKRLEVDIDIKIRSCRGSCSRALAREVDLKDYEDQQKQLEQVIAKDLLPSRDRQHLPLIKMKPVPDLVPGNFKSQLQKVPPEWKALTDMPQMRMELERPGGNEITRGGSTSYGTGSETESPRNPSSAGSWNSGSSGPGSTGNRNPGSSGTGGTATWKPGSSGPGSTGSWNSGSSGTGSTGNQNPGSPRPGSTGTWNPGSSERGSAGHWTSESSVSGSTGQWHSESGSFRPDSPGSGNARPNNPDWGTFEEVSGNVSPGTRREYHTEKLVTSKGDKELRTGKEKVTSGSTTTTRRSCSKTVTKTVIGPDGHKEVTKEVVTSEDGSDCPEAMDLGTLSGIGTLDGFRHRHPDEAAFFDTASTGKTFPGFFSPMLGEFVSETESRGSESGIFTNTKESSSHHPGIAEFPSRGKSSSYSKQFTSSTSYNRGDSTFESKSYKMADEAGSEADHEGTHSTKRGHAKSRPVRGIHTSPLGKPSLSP
Sequence of UniProt P02671 (P02675 31-491 limits assumed, chain 2 of 3, further chain): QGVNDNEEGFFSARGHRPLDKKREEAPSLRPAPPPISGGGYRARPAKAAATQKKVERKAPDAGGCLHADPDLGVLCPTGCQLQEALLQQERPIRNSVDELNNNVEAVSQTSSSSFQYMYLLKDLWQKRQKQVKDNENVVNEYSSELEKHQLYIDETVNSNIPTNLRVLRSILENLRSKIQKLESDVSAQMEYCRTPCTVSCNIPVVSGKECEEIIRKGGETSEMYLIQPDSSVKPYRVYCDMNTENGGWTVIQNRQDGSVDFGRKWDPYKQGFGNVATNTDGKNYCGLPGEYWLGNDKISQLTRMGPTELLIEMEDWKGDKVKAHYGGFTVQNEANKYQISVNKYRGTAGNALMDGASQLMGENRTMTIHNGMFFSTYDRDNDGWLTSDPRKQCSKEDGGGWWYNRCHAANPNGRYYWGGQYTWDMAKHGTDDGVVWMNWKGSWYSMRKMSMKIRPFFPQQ
Sequence of UniProt P02671 (P02679 other isoform, or with tags, fused parts or gaps limits assumed, chain 3 of 3, further chain): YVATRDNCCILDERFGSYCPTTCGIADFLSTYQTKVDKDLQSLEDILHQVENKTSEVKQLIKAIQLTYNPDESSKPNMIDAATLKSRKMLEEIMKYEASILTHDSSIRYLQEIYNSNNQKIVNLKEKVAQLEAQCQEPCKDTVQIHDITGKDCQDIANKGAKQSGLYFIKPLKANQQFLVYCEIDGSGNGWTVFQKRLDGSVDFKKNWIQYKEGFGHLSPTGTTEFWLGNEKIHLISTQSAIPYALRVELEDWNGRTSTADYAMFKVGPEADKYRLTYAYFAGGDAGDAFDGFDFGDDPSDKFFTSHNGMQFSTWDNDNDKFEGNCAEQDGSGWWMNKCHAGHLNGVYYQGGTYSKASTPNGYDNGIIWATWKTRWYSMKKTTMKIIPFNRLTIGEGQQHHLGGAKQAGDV
Assay [7] has as its target Human serum albumin (human) (UniProt P02768). The description is as above.
Assay [8] deals with IgA. The description is as above.
The target of assay [9] is Lactoferrin. The assay is described as above.
Assay [10] concerns the target Pepsin. The description is as above.
In assay [11] the target is Transferrin. The description is as above.
The target of assay [12] is Vitronectin. The description is as above.
Assay [13] concerns the target human IgG. Described as above.
The target in assay [14] is α2macroglobulin. Described as above.
Assay [15] concerns the target Bovine serum albumin (fraction V, ria grade) (bovine) (UniProt P02769). The assay can be described thus: phage panning on coated protein in microtiter wells; bound phage eluted at pH 1.8.
For assay [16], the target named is Collagen type I. The assay is described as above.
For assay [17], the target named is Elastin. Described as above.
Assay [18] concerns the target Fibronectin. The assay is described as above.
Assay [19] deals with Human fibrinogen (human) (UniProt P02671). Described as above.
The target in assay [20] is Human serum albumin (human) (UniProt P02768). Described as above.
The target in assay [21] is IgA. Described as above.
The target of assay [22] is Lactoferrin. The description is as above.
For assay [23], the target named is Pepsin. The description is as above.
Assay [24] deals with Transferrin. The assay is described as above.
In assay [25] the target is Vitronectin. The assay is described as above.
Assay [26] has as its target human IgG. Described as above.
For assay [27], the target named is α2macroglobulin. Described as above.

Sequence of UniProt O70022 (O70022 75-656): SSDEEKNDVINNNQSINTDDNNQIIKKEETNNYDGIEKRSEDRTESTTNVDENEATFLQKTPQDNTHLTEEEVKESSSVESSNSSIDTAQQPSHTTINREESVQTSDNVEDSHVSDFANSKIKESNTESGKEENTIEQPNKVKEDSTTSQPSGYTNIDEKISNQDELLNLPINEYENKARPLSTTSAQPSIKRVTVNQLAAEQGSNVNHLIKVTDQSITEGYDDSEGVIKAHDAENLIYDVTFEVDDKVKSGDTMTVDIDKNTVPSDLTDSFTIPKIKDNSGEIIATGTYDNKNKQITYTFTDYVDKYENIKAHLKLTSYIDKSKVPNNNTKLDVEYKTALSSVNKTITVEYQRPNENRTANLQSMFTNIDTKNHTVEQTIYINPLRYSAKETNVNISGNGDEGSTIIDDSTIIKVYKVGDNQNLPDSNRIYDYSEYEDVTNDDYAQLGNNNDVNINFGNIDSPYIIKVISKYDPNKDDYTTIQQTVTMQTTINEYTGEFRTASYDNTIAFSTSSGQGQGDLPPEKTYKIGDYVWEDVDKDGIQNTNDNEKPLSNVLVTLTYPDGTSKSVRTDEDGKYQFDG

In assay [1], “Human fibrinogen (from UniProt P02671 20-644; P02675 31-491; P02679 27-437)” came in with an eluted phage titre at 0 µg/ml soluble ligand of 76000 cfu/ml, an eluted phage titre at 0.1 µg/ml soluble ligand of 44000 cfu/ml, an eluted phage titre at 1 µg/ml soluble ligand of 36000 cfu/ml and an eluted phage titre at 10 µg/ml soluble ligand of 15000 cfu/ml. In assay [1], this substance returned an eluted phage titre at 100 µg/ml soluble ligand of 3800 cfu/ml and an eluted phage titre at 1000 µg/ml soluble ligand of 300 cfu/ml.
In the case of “Bovine serum albumin (fraction V, ria grade) (from UniProt P02769 25-607)”, in [1], the eluted phage titre at 0 µg/ml soluble ligand was 76000 cfu/ml, the eluted phage titre at 0.1 µg/ml soluble ligand is 70000 cfu/ml, the eluted phage titre at 1 µg/ml soluble ligand was determined as 93000 cfu/ml and the eluted phage titre at 10 µg/ml soluble ligand came to 63000 cfu/ml. In assay [1], the eluted phage titre at 100 µg/ml soluble ligand was 64000 cfu/ml and the eluted phage titre at 1000 µg/ml soluble ligand worked out at 69000 cfu/ml.
In assay [1], human IgG (antibody) yielded an eluted phage titre at 0 µg/ml soluble ligand of 76000 cfu/ml, an eluted phage titre at 0.1 µg/ml soluble ligand of 62000 cfu/ml, an eluted phage titre at 1 µg/ml soluble ligand of 90000 cfu/ml and an eluted phage titre at 10 µg/ml soluble ligand of 78000 cfu/ml. Besides, in assay [1], the eluted phage titre at 100 µg/ml soluble ligand worked out at 73000 cfu/ml and the eluted phage titre at 1000 µg/ml soluble ligand came out at 76000 cfu/ml.
For the substance “fibrinogen binding protein encoded from pSE100 (581 aa part of protein FIG of Staphylococcus epidermidis strain HB) (from UniProt O70022 75-656)”, the phage titre in the last wash in assay [2] is under 100 cfu/ml; in assay [3], 600 cfu/ml; in assay [4], 800 cfu/ml; in assay [5], 600 cfu/ml; in assay [6] it was 11000 cfu/ml; in [7], 800 cfu/ml. Also, the phage titre in the last wash was 600 cfu/ml in assay [8]; 600 cfu/ml in [9]; 180 cfu/ml in [10]; 200 cfu/ml in [11]; under 100 cfu/ml in assay [12]; 400 cfu/ml in assay [13]. In [14], this substance displayed a phage titre in the last wash of 200 cfu/ml. Also, the phage titre in Eluate pH 1.8 in assay [15] amounted to 800 cfu/ml; in assay [16] it was 1200 cfu/ml; in assay [17], 5200 cfu/ml; in assay [18] it was 24000 cfu/ml; in assay [19], 1.4e+07 cfu/ml; in assay [20], 2200 cfu/ml. In addition, the phage titre in Eluate pH 1.8 in assay [21] came to 68000 cfu/ml; in [22], 8200 cfu/ml; in [23] it was 37000 cfu/ml; in [24], 2400 cfu/ml; in assay [25], 2200 cfu/ml; in [26], 4400 cfu/ml. In assay [27], the phage titre in Eluate pH 1.8 was found to be 2000 cfu/ml.

(Values after patent publication US20040209326A1.)
